No end group written: not given here. *: point of attachment. (PEG)2 40 kDa = branched PEG of 40 kDa linked via the Cys side-chain thiol (code C2 = Cys(PEG)2 40 kDa); Succinimide(1-Et,3-yl) = CCN1C(=O)CC(*)C1=O
T1: human NMUR1 (human, UniProt Q9HB89 1-426)
T1 sequence (looked up): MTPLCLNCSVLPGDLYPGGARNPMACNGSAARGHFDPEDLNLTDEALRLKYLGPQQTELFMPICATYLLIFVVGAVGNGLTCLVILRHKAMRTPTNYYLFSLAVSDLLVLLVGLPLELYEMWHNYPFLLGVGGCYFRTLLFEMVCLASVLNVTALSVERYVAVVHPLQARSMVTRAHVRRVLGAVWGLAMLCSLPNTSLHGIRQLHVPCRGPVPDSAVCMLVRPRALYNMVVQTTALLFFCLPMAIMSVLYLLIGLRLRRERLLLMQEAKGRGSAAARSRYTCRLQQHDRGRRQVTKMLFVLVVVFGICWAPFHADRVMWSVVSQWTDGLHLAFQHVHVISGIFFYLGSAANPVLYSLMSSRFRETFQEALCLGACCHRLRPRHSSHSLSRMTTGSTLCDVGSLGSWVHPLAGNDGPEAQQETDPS

T2: mouse NMUR1-ATG (mouse, UniProt O55040 1-428)
T2 sequence (looked up): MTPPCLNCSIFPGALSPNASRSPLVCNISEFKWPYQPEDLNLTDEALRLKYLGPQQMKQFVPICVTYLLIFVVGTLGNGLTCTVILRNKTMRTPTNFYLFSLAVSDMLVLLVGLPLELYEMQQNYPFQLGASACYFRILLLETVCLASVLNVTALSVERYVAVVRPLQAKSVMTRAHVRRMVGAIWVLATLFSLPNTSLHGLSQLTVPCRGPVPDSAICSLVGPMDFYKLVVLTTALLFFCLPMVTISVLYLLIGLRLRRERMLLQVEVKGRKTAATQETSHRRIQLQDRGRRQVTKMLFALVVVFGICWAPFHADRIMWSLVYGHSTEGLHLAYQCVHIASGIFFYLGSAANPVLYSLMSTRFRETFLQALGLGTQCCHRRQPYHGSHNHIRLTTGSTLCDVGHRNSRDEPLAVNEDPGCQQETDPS

T3: mouse NMUR1-CTG (mouse, UniProt O55040 1-428)
T3 sequence (looked up): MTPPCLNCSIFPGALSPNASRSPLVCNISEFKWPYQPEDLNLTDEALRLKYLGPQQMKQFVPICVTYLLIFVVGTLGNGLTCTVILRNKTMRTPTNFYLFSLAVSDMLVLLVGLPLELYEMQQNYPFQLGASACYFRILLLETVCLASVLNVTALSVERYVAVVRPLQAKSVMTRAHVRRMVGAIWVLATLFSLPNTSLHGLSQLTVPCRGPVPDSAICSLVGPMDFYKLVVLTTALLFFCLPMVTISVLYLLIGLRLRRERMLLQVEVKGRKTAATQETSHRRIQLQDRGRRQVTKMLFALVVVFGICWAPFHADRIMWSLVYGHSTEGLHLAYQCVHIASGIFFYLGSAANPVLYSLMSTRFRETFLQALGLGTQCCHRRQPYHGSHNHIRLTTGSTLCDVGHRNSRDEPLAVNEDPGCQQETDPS

T4: rat NMUR1-ATG (rat, UniProt Q9JJI5 1-425)
T4 sequence (looked up): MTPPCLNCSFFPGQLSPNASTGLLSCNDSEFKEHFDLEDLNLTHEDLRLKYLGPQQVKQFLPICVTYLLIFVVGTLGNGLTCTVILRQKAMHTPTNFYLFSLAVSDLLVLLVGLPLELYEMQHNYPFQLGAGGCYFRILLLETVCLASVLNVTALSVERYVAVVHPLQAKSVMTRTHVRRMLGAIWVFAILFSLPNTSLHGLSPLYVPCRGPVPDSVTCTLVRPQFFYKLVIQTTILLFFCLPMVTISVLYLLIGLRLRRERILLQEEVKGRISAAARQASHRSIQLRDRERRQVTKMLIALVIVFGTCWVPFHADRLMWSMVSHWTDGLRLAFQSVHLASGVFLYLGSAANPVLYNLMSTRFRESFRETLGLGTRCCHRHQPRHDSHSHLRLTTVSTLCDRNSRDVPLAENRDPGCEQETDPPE


Tests used:
Assay in all cases: cell-based or functional assay
[1] = target: T1, human NMUR1
[2] = target: human NMUR2 (human, UniProt Q9GZQ4 1-415)
[3] = target: T2, mouse NMUR1-ATG
[4] = target: T3, mouse NMUR1-CTG
[5] = target: mouse NMUR2 (mouse, UniProt Q8BZ39 1-395)
[6] = target: T4, rat NMUR1-ATG
[7] = target: rat NMUR2 (rat, UniProt Q9ESQ4 1-395)
rat NMUR2, sequence (Q9ESQ4 whole entry): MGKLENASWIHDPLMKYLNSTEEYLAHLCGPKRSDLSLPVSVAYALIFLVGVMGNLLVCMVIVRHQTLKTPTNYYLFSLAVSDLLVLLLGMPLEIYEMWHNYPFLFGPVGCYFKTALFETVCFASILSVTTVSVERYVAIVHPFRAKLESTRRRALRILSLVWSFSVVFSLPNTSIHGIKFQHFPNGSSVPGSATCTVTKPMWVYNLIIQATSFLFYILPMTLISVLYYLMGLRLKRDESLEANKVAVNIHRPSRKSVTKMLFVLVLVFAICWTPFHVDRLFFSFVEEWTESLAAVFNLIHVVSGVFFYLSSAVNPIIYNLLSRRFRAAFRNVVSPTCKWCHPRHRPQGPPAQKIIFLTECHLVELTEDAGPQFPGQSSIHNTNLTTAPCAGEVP

mouse NMUR2, sequence (Q8BZ39 whole entry): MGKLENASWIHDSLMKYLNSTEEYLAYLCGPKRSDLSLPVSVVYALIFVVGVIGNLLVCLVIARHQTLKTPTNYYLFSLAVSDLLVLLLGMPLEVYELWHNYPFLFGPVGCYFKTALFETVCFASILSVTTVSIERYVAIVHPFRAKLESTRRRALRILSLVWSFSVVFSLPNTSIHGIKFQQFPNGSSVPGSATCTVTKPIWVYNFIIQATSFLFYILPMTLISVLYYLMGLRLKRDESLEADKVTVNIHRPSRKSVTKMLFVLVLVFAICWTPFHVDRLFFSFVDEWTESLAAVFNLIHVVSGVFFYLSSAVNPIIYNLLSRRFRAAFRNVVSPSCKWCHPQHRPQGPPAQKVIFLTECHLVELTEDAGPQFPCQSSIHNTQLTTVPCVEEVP
human NMUR2, sequence (Q9GZQ4 whole entry): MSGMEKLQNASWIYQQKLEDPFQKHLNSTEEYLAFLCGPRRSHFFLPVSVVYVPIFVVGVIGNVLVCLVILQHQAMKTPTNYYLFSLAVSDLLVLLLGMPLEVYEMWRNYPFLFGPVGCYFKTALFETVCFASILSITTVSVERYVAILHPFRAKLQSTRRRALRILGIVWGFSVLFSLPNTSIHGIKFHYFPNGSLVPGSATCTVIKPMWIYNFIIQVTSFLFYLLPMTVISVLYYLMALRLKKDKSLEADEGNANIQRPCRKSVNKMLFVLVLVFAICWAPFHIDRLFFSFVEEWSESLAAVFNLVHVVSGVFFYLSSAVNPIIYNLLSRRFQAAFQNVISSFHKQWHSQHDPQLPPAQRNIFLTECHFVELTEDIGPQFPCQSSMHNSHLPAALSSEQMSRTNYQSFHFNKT

% Activity (FLIPR) [1] [%] | EC50 (FLIPR) [1] [nM] | % Activity (FLIPR) [2] [%] | EC50 (FLIPR) [2] [nM] | % Activity (FLIPR) [3] [%] | EC50 (FLIPR) [3] [nM] | % Activity (FLIPR) [4] [%] | EC50 (FLIPR) [4] [nM] | % Activity (FLIPR) [5] [%] | EC50 (FLIPR) [5] [nM] | % Activity (FLIPR) [6] [%] | EC50 (FLIPR) [6] [nM] | % Activity (FLIPR) [7] [%] | EC50 (FLIPR) [7] [nM] | Binder
99 | 5.5 | 97.4 | 2.6 | 100 | 2.1 | 100 | 8.3 | 100 | 1.2 | 89.2 | 3.3 | 100 | 2.2 | Ac-FRVDEEFQSPFASQSRGYFLFRPRN-NH2 [NMU2]
91.4 | 79.6 | 91.8 | 36.1 |  |  |  |  |  |  |  |  |  |  | Ac-C((PEG)2 40 kDa)GYFLFRPRN-NH2 [NMU7]
97 | 7.2 | 100 | 2.6 | 100 | 3.6 | 100 | 11.6 | 100 | 1.2 | 100 | 3.8 | 100 | 2.9 | FRVDEEFQSPFASQSRPYFLFRPRN-NH2 [NMU4]
96.7 | 3.5 | 100 | 1.5 | 100 | 1 | 100 | 2 | 100 | 0.7 | 100 | 1 | 100 | 1.5 | Ac-C(Succinimide(1-Et,3-yl))GYFLFRPRN-NH2 (SMILES CCN1C(=O)CC(SC[C@H](NC(C)=O)C(=O)NCC(=O)N[C@@H](Cc2ccc(O)cc2)C(=O)N[C@@H](Cc2ccccc2)C(=O)N[C@@H](CC(C)C)C(=O)N[C@@H](Cc2ccccc2)C(=O)N[C@@H](CCCNC(=N)N)C(=O)N2CCC[C@H]2C(=O)N[C@@H](CCCNC(=N)N)C(=O)N[C@@H](CC(N)=O)C(N)=O)C1=O) [NMU6]
83.7 | 81.4 | 85 | 64.8 |  |  |  |  | 95.7 | 31 | 59.3 | 718 | 87.1 | 71.7 | FRVDEEFQSPFASQSRGYFLFRPRN-NH2 (not fully specified (N-terminus)) [NMU1]
98.1 | 6.1 | 98.1 | 2.5 | 100 | 3.3 | 100 | 11.9 | 100 | 1 | 100 | 3.6 | 100 | 2.3 | Ac-FRVDEEFQSPFASQSRPYFLFRPRN-NH2 [NMU5]
98.9 | 5.6 | 100 | 1.9 | 100 | 2.9 | 100 | 4.7 | 100 | 1 | 100 | 0.7 | 100 | 1.8 | GYFLFRPRN-NH2 [NMU3]
